From US20200231671A1 (E R SQUIBB AND SONS L L C, published 2020) come the findings set out here.

Residue numbers refer to the chain shown, from its start. Where no end group is shown, it is not given here.

Experiment [1] has as its target T1, recombinant human LAG-3 fusion protein (human, UniProt P18627 23-450).
T1 construct: also called recombinant LAG-3 protein
T1 sequence (looked up): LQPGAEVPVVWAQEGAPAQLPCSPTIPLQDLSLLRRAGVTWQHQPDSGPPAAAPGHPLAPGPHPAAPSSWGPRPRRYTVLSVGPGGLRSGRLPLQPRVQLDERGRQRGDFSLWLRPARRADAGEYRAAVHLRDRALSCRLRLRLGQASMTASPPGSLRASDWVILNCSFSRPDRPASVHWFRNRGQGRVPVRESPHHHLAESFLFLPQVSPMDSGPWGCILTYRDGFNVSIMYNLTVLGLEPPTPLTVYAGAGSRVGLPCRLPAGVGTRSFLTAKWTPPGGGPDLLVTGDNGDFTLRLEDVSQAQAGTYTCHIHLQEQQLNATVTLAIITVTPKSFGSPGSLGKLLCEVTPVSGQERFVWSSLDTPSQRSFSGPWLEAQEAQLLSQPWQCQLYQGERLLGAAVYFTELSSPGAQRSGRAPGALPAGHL
The experiment can be described thus: BIAcore, antibody captured on anti-CH1, 20 nM LAG-3 fusion protein injected. Here is the method: The binding of the 25E3, 25F7, 8B7, 26H10 and 17E5 antibodies to recombinant LAG-3 protein was examined by BIAcore™ using a capture method. The 25E3, 25F7, 8B7, 26H10 and 17E5 antibodies each were captured using anti-CH1, a reagent antibody that is specific towards the heavy chain constant region 1 of human antibody (Zymed, Clone HP6045, Stock conc. 1.0 mg/mL). Anti-CH1 was coated on a CMS chip (BR-1000-14, Research Grade) at high density (9700-11500RUs). The coating was carried out based on the standard immobilization procedure recommended by the manufacturer. The 25E3, 25F7, 8B7, 26H10 or 17E5 purified antibody, with concentrations ranging from 0.5-3 μg/mL, was then captured on the anti-CH1 coated surface at the flow-rate of 10 uL/min for 1 minute. A single concentration of recombinant human LAG-3 fusion protein (20 nM) was injected over captured antibody for 3 minutes at a flow rate of […]. The antigen was allowed to dissociate for 7.5 minutes. The chip surface was regenerated after each cycle with 25 μL, of 25 mM NaOH followed by 30 μL of HBS-EP wash. Isotype controls were run on the chip, and the data used to subtract non-specific binding. All the experiments were carried out on a Biacore 3000 surface plasmon resonance instrument, using BIAcore Control software v 3.2. Data analysis was carried out using BiaEvaluation v3.2 software. The BIAcore results for 25E3, 25F7, 8B7, 26H10 and 17E5 confirm the flow cytometry results that all five antibodies are capable of binding with high affinity to human LAG-3.
Background: SPR reads the build-up and loss of mass on a sensor chip optically.

In experiment [2] the target is T2, rhesus monkey LAG-3, clone pa23-5 (cell surface, CHO) (rhesus monkey, UniProt P18627 24-525 (human entry)).
T2 construct: also called CHO-rhesus LAG3
T2 chain: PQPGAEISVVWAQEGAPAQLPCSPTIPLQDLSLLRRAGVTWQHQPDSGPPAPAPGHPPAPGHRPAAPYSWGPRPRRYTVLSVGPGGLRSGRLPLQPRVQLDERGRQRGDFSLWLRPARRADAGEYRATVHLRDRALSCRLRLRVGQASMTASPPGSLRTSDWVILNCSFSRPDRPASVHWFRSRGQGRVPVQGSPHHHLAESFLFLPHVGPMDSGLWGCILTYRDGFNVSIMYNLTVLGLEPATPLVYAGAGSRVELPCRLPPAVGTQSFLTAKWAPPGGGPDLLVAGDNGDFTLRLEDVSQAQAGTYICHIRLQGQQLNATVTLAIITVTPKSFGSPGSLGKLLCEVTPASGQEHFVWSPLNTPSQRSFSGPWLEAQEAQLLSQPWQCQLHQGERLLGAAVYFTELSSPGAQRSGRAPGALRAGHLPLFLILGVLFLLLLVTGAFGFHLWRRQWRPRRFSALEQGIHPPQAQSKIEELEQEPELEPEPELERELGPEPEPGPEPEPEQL
The experiment is described as follows: flow cytometry, CHO cells expressing rhesus LAG-3. From the text: The cDNA of clone pa23-5 was inserted into an expression construct, which was transfected into CHO-S suspension cells by nucleofection (Amaxa). Rhesus LAG-3 expression by sorted, selection drug-resistant clones was verified by FACS analysis. This clonal CHO cell line over-expressing rhesus LAG-3 was used in similar FACS assays to those described above to measure antibody cross reactivity to the monkey protein. Briefly, the 25F7, 8B7 and 26H10 monoclonal antibodies were serially diluted with cold 1×PFAE buffer (1×PBS+2% FBS, 0.02% sodium azide, 2 mM Na EDTA). For the binding reaction, 50 μl of diluted antibody solution was added to a 50 μl cell suspension containing 2×10⁵ cells and the mixture was incubated on ice for 30 minutes. The cells were processed by the same protocol described above. The analysis of antibody binding was conducted as described above.
(In general: In flow cytometry, cells or beads pass a laser one at a time.)

Experiment [3] addresses T3, LAG-3 extra loop scan peptide PAAPSSWGPRPR (human, also: conjugated to biotin).
T3 construct: 12-mer overlapping scan peptide of the extra loop
T3 peptide: PAAPSSWGPRPR
The experiment can be described thus: peptide scan ELISA. Here is the method:
(§1) In the LAG-3 protein, the immunoglobulin-like first domain of the extracellular region contains an exposed “extra loop” having the amino acid sequence: […] (SEQ ID NO: 79). To examine the binding of 25E3, 25F7, 8B7 and 26H10 to this region of LAG-3, and map the epitope bound by each antibody, a peptide scan experiment was performed across this region. A series of 10 overlapping peptides that scanned across the full length of the extra loop sequence were prepared and conjugated to biotin. For ELISA analysis, microtiter plates pre-coated with streptavidin (Sigma-Aldrich, Cat # M5432) were used to capture the biotinylated loop peptide-conjugates applied in a 100 μl volume at a concentration of 2 μg/mL and incubated 18 hours at 4° C., after which the plates were washed 3 times and blocked at room temperature for 1 hour with blocking buffer (1×PBS+10% FBS). Next, human anti-LAG-3 antibodies serially diluted 3-fold in blocking buffer from 10 μg/mL were applied and the plates were incubated at room temperature for 2 hours and then washed three times. To detect bound human antibody a HRP-conjugated goat anti-human kappa light chain antibody (Bethyl Laboratories, Cat # A80-115P) was diluted to 1 μg/mL in blocking buffer and applied to assay wells for 1 hour followed by three washes and application of TMB substrate (eBioscience, Cat #00-4201-56). Optical density readings at 650 nm wavelength were made on a Spectramax 340PC spectrophotometer ([…].).
In general terms: In an ELISA, binding on a coated surface is turned into a signal by an enzyme label.

For experiment [4], the target named is T4, LAG-3 extra loop scan peptide PHPAAPSSWGPR (human, also: conjugated to biotin).
T4 construct: 12-mer overlapping scan peptide of the extra loop
T4 peptide: PHPAAPSSWGPR
The experiment is described as follows: peptide scan ELISA. Here is the method:
as §1

The target of experiment [5] is T5, LAG-3 extra loop scan peptide PGPHPAAPSSWG (human, also: conjugated to biotin).
T5 construct: 12-mer overlapping scan peptide of the extra loop
T5 peptide: PGPHPAAPSSWG
The experiment can be described thus: peptide scan ELISA. The procedure:
as §1

One may read the Kd as a measure of binding affinity in units of concentration. The EC50 is the midpoint of the concentration-response curve.

B1: 25E3 human monoclonal antibody (antibody, IgG1, V domains shown)
VH: EVQLVESGGGVVRPGGSLRLSCAASGFTFDDYGMSWVRQAPGKGLEWVSGINWNGGSTYYADSVKGRFTISGDNAKNSLYLQMNSLRAEDTALYYCTTGGYWGQGTLVTVSS
VL: AIQLTQSPSSLSASVGDRVTITCRASQGIRSALAWYQQKPGKAPKLLIYDASSLESGVPSRFSGSGSGTDFTLTISSLQPEDFATYYCQQFNSYPYTFGQGTKLEIK
In the case of B1, the Kd in experiment [1] amounted to 0.09 nM.

B2: 26H10 human monoclonal antibody (antibody, IgG1, V domains shown)
VH: QVQLVESGGGVVQPGRSLRLSCAASGFTFSSYGMHWVRQAPGKGLEWVAVIWYDGSNKYYADSVKGRFTISRDNSKNTLYLQMNSLRAEDTAVYYCAREWAVASWDYGMDVWGQGTTVTVSS
VL: not shown
notes: also called 26H10-FITC
Consider B2, for which the Kd in experiment [1] was determined as 0.1 nM. In experiment [2], this molecule came in with an EC50 of 4.68 nM. In addition, the binding result in experiment [3], in experiment [4] and in experiment [5] was “no binding (tested: 10 µg/mL)” each time.

B3: 25F7 human monoclonal antibody (antibody, IgG1, V domains shown)
VH: QVQLQQWGAGLLKPSETLSLTCAVYGGSFSDYYWNWIRQPPGKGLEWIGEINHNGNTNSNPSLKSRVTLSLDTSKNQFSLKLRSVTAADTAVYYCAFGYSDYEYNWFDPWGQGTLVTVSS
VL: EIVLTQSPATLSLSPGERATLSCRASQSISSYLAWYQQKPGQAPRLLIYDASNRATGIPARFSGSGSGTDFTLTISSLEPEDFAVYYCQQRSNWPLTFGQGTNLEIK
notes: also called 25F7-FITC (IgG1 version)
For the molecule B3, in experiment [1], the dissociation constant Kd was 0.47 nM. In addition, in experiment [2], the EC50 was 22.7 nM. The binding result in experiment [3], in experiment [4] and in experiment [5] was “binds” in each case.

B4: 8B7 human monoclonal antibody (antibody, IgG4, V domains shown)
VH: QVQLQQWGAGLLKPSETLSLTCAVYGGSFSGYYWSWIRQPPGKGLEWIGEINHRGNTNCNPSLKSRVTISGDTSKKQFALKLNSVTAADTAVYYCARGYDILTGYYEDSWGPGTLVTVSS
VL: B3 VL with I29V, D50N, Q100G, N103K, L104V
notes: also called 8B7-FITC
Turning to B4, in experiment [1], the Kd was 0.09 nM. Moreover, the EC50 in experiment [2] turned out to be 10 nM. Besides, the binding result in experiment [3], in experiment [4] and in experiment [5] was “binds” throughout.
